Experiment [1] has as its target H5 A/Cambodia/2302009/2023 HA ectodomain (influenza A virus H5N1 A/Cambodia/2302009/2023).
The target of experiment [2] is H5 A/Indonesia/05/2005 HA ectodomain (influenza A virus H5N1 A/Indonesia/05/2005).
Experiment [3] has as its target H5 A/Sichuan/26221/2014 HA ectodomain (influenza A virus H5N6 A/Sichuan/26221/2014).
For experiment [4], the target named is H5 A/Victoria/149/2024 HA ectodomain (influenza A virus H5N1 A/Victoria/149/2024).

Some results are limits rather than exact numbers.

B1: 326-289.74 (IgG1) (antibody, V domains shown)
VH: QVQLVQSGAEVKKPGSSVKVSCKASGGTFSIYTFTWVRQAPGHGLEWMGGILPISGSAKYAQKFLGRVTITADESTSTVYMELSSLRSEDTAIYYCARDPYSNYFYGLDVWGQGTTVTVSS
VL: EIVLTQSPVTLSLSPGERATLSCRASQSVSRFLAWYQQKPGQAPRLLFYDASTRATGIPARFSGTGSGTDFTLTISGLEPEDFAVYYCQQRSNWPPEYSFGQGTKLEIK
Regarding B1, in experiment [1], the neutralization IC80, R4ΔPB1 reporter virus H5N1 A/Cambodia/2302009/2023 turned out to be 0.133 µg/mL. Further, the neutralization IC80, R4ΔPB1 reporter virus H5N1 A/Indonesia/05/2005 in experiment [2] is 0.014 µg/mL. For the same molecule, the neutralization IC80, R4ΔPB1 reporter virus H5N6 A/Sichuan/26221/2014 in experiment [3] is 0.006 µg/mL. This molecule also registered a neutralization IC80, R4ΔPB1 reporter virus H5N1 A/Victoria/149/2024 in experiment [4] of 0.335 µg/mL.

B2: 326-366.26 (IgG1) (antibody, V domains shown)
VH: QMQLQESGPGLVKPSGTLSLTCAVSGGSISNSHWWSWVRQSPGKGLEWIGEIYHSGSTYYNPSLKSRLTISVDKSKNQFSLKLTSVTAADTAVYFCARGLGWEQGGYRAFDMWGQGTTVTVSS
VL: EIVMTQSPATLSVSPGERVTLSCRASQSVGSSLAWYQQKPGQAPRLLIYAASTRATGIPARFSGSGSGTEFTLTISSLQSEDFAVYYCQQHYNWPPLTFGGGTKVEIK
In the case of B2, the neutralization IC80, R4ΔPB1 reporter virus H5N1 A/Cambodia/2302009/2023 in experiment [1] was over 25 µg/mL. Further, in experiment [2], the neutralization IC80, R4ΔPB1 reporter virus H5N1 A/Indonesia/05/2005 worked out at 0.009 µg/mL. Moreover, in experiment [3], the neutralization IC80, R4ΔPB1 reporter virus H5N6 A/Sichuan/26221/2014 is 0.008 µg/mL. In experiment [4], this molecule yielded a neutralization IC80, R4ΔPB1 reporter virus H5N1 A/Victoria/149/2024 of 0.193 µg/mL.

(Values after article PMC12578633.)
